Test results reported in PMC9352680, “A comprehensive thermodynamic model for RNA binding by the Saccharomyces cerevisiae Pumilio protein PUF4”.

T1: PUF4 RNA-binding domain (Saccharomyces cerevisiae, UniProt P25339 537-888)
T1 sequence: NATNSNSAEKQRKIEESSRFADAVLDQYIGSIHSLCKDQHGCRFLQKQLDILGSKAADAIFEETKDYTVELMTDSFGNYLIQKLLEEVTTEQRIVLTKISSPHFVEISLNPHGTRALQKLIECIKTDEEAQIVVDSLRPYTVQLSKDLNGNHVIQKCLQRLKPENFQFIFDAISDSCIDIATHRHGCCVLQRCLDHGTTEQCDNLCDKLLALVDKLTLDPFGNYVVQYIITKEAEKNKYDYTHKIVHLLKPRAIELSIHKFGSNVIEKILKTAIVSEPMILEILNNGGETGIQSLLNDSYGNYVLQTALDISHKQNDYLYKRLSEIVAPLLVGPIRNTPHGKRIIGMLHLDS

B1: Id_ii_S1_P4E.4_K4.3_C4.2_[C-2A]_H4.3_A4.1_F4.1_T4.2_[G10A]_[T11C] (ssRNA)
RNA: UCUCUUAUACACUAUUAACUCUCUU
B2: Id_ii_S1_P4E.4_K4.3_C4.2_[C-2A]_H4.3_A4.1_F4.1_T4.2_[G10C]_[T11C] (ssRNA)
RNA: UCUCUUAUACACUAUUACCUCUCUU
B3: Id_ii_S1_P4E.4_K4.3_C4.2_[C-2T]_[T-1G]_H4.3_A4.1_F4.1_T4.2_[G10A]_[T11C] (ssRNA)
RNA: UCUCUUUGACACUAUUAACUCUCUU
B4: Id_ii_S1_P4E.4_K4.3_C4.2_[C-2A]_[T-1G]_H4.3_A4.1_F4.1_T4.2_[G10A] (ssRNA)
RNA: UCUCUUAGACACUAUUAAUUCUCUU
B5: Id_ii_S1_P4E.4_K4.3_C4.2_[T-1C]_H4.3_A4.1_F4.1_T4.2_[G10T]_[T11A] (ssRNA)
RNA: UCUCUUCCACACUAUUAUAUCUCUU
B6: Id_ii_S1_P4E.4_K4.3_C4.2_[C-2A]_[T-1A]_H4.3_A4.1_F4.1_T4.2_[G10T]_[T11A] (ssRNA)
RNA: UCUCUUAAACACUAUUAUAUCUCUU
B7: Id_ii_S1_P4E.4_K4.3_C4.2_[C-2T]_H4.3_A4.1_F4.1_T4.2 (ssRNA)
RNA: UCUCUUUUACACUAUUAGUUCUCUU
B8: Id_ii_S1_P4E.4_K4.3_C4.2_[C-2A]_[T-1A]_H4.3_A4.1_F4.1_T4.2_[G10C]_[T11C] (ssRNA)
RNA: UCUCUUAAACACUAUUACCUCUCUU
B9: Id_ii_S1_P4E.4_K4.3_C4.2_[C-2A]_H4.3_A4.1_F4.1_T4.2_[G10T]_[T11C] (ssRNA)
RNA: UCUCUUAUACACUAUUAUCUCUCUU
B10: Id_ii_S1_P4E.4_K4.3_C4.2_[T-1G]_H4.3_A4.1_F4.1_T4.2_[G10C]_[T11A] (ssRNA)
RNA: UCUCUUCGACACUAUUACAUCUCUU
B11: Id_ii_S1_P4E.4_K4.3_C4.2_[C-2A]_[T-1A]_H4.3_A4.1_F4.1_T4.2_[G10T] (ssRNA)
RNA: UCUCUUAAACACUAUUAUUUCUCUU
B12: Id_ii_S1_P4E.4_K4.3_C4.2_[C-2A]_[T-1C]_H4.3_A4.1_F4.1_T4.2_[G10C]_[T11G] (ssRNA)
RNA: UCUCUUACACACUAUUACGUCUCUU
B13: Id_ii_S1_P4E.4_K4.3_C4.2_[C-2T]_[T-1A]_H4.3_A4.1_F4.1_T4.2_[G10T] (ssRNA)
RNA: UCUCUUUAACACUAUUAUUUCUCUU
B14: Id_ii_S1_P4E.4_K4.3_C4.2_[C-2A]_[T-1C]_H4.3_A4.1_F4.1_T4.2_[G10A]_[T11C] (ssRNA)
RNA: UCUCUUACACACUAUUAACUCUCUU
B15: Ib_S1_P4E.1_K4.1_C4.1_H4.1_A4.1_[T5A]_[A6C]_F4.1_T4.1 (ssRNA)
RNA: UCUCUUUGUAACUUAUCUCUU
B16: Id_ii_S1_P4E.4_K4.3_C4.2_[C-2A]_[T-1C]_H4.3_A4.1_F4.1_T4.2_[G10C] (ssRNA)
RNA: UCUCUUACACACUAUUACUUCUCUU
B17: Id_ii_S1_P4E.4_K4.3_C4.2_[T-1G]_H4.3_A4.1_F4.1_T4.2_[G10A]_[T11C] (ssRNA)
RNA: UCUCUUCGACACUAUUAACUCUCUU
B18: Id_ii_S1_P4E.4_K4.3_C4.2_[C-2A]_[T-1A]_H4.3_A4.1_F4.1_T4.2_[G10A]_[T11A] (ssRNA)
RNA: UCUCUUAAACACUAUUAAAUCUCUU
B19: Ic_S1_P4E.1_K4.1_C4.1_H4.1_A4.1_[T5G]_[A6C]_F4.1_T4.1 (ssRNA)
RNA: UCUCUUUGUAGCUUAUCUCUU
B20: Id_ii_S1_P4E.4_K4.3_C4.2_[T-1C]_H4.3_A4.1_F4.1_T4.2_[G10A]_[T11C] (ssRNA)
RNA: UCUCUUCCACACUAUUAACUCUCUU
B21: Id_ii_S1_P4E.4_K4.3_C4.2_[T-1C]_H4.3_A4.1_F4.1_T4.2_[G10C]_[T11A] (ssRNA)
RNA: UCUCUUCCACACUAUUACAUCUCUU
B22: Ic_S1_P4E.1_K4.1_C4.1_H4.1_A4.1_[T5G]_[A6T]_F4.1_T4.1 (ssRNA)
RNA: UCUCUUUGUAGUUUAUCUCUU
B23: Id_ii_S1_P4E.4_K4.3_C4.2_[C-2T]_H4.3_A4.1_F4.1_T4.2_[G10T]_[T11C] (ssRNA)
RNA: UCUCUUUUACACUAUUAUCUCUCUU
B24: Id_ii_S1_P4E.4_K4.3_C4.2_[C-2A]_H4.3_A4.1_F4.1_T4.2_[G10C] (ssRNA)
RNA: UCUCUUAUACACUAUUACUUCUCUU
B25: Ib_S1_P4E.1_K4.1_C4.1_H4.1_A4.1_[T5C]_[A6T]_F4.1_T4.1 (ssRNA)
RNA: UCUCUUUGUACUUUAUCUCUU
B26: Id_ii_S1_P4E.4_K4.3_C4.2_[T-1C]_H4.3_A4.1_F4.1_T4.2_[G10C]_[T11G] (ssRNA)
RNA: UCUCUUCCACACUAUUACGUCUCUU
B27: Id_ii_S1_P4E.4_K4.3_C4.2_[C-2T]_[T-1A]_H4.3_A4.1_F4.1_T4.2_[G10C] (ssRNA)
RNA: UCUCUUUAACACUAUUACUUCUCUU
B28: Id_ii_S1_P4E.4_K4.3_C4.2_[T-1G]_H4.3_A4.1_F4.1_T4.2_[G10C] (ssRNA)
RNA: UCUCUUCGACACUAUUACUUCUCUU
B29: Id_ii_S1_P4E.4_K4.3_C4.2_[T-1C]_H4.3_A4.1_F4.1_T4.2_[G10C]_[T11C] (ssRNA)
RNA: UCUCUUCCACACUAUUACCUCUCUU
B30: Id_ii_S1_P4E.4_K4.3_C4.2_[C-2T]_H4.3_A4.1_F4.1_T4.2_[G10A]_[T11C] (ssRNA)
RNA: UCUCUUUUACACUAUUAACUCUCUU
B31: Id_ii_S1_P4E.4_K4.3_C4.2_[C-2T]_H4.3_A4.1_F4.1_T4.2_[G10C]_[T11G] (ssRNA)
RNA: UCUCUUUUACACUAUUACGUCUCUU

The binders below were run against T1, PUF4 RNA-binding domain (assay: Mg; RNA-MaP; 20 mM Na-HEPES pH 7.4, 30 mM KOAc, 0.75 mM MgCl2, 0.1% Tween-20, 5% glycerol, 0.1 mg/mL BSA, 2 mM DTT; 25 C; 0.0125-409.6 nM protein). Conditions: tags: N-His6-TEV cleaved; C-SNAP kept, Cy3B-labelled; label: tethered on chip by stalled RNA polymerase.
B1 was tested, and the Kd was 37.5 nM. With B2 the Kd was 26.4 nM. For B3, the Kd was greater than 2300 nM. B4 showed a Kd greater than 2300 nM. B5 showed a Kd greater than 2300 nM. B6 was tested, and the Kd was greater than 2300 nM. B7 was tested, and the Kd was 1370 nM. B8 gave a Kd greater than 2300 nM. In the case of B9, the Kd is reported as 21.8 nM. B10 showed a Kd greater than 2300 nM. Binder B11 has a Kd greater than 2300 nM. With B12 the Kd was greater than 2300 nM. With B13 the Kd was greater than 2300 nM. B14 showed a Kd greater than 2300 nM. For B15, the Kd was 8.33 nM. In the case of B16, the Kd is reported as greater than 2300 nM. B17 showed a Kd greater than 2300 nM. B18 gave a Kd greater than 2300 nM. Binder B19 has a Kd of 28.6 nM. B20 gave a Kd greater than 2300 nM. With B21 the Kd was greater than 2300 nM. With B22 the Kd was 18.5 nM. Work on B23 yielded a Kd of 1280 nM. In the case of B24, the Kd is reported as 31.1 nM. B25 gave a Kd of 2.73 nM. Binder B26 has a Kd greater than 2300 nM. Work on B27 yielded a Kd greater than 2300 nM. B28 showed a Kd greater than 2300 nM. B29 was tested, and the Kd was greater than 2300 nM. For B30, the Kd was 977 nM. B31 was tested, and the Kd was 1680 nM.
